Test results: the supplement of paper PMC10567573

B1: ZNF263 (parent)
chain: FGGNPRFLSLHRAHLGEEAHKCLE
B2: SMTNL2 (parent)
chain: QKNFELAFTMAENLANCERLIEVE

Variants of: B1
Assay: protein stability index of a GFP-peptide fusion (GPS, HEK-293T) (PSI 1-6); higher = more stable
Settings: c terminus: a fixed tail appended
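Also: lentivirally expressed fusions sorted by FACS into six bins by GFP to DsRed ratio, PSI derived from sequencing read proportions per bin multiplied by bin number.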

Protein stability index: each site, then its substitutions
E17: F 2.94 | G 1.3 | H 1.82 | I 1.19 | K 2.5 | L 1.25 | M 2.82 | N 1.97 | P 1.41 | Q 1.85 | R 1.78 | S 2.07 | T 1.73 | W 2.12 | Y 1.56
E18: A 1.77 | C 2.12 | D 1.87 | F 1.85 | G 1.61 | H 1.47 | I 2.34 | K 1.39 | L 2.33 | M 1.75 | N 1.07 | P 2.05 | Q 1.87 | R 1.62 | S 2.34 | T 1.46 | V 2.43 | W 2.03 | Y 1.88
A19: C 2.48 | D 1.99 | E 2.14 | F 1.44 | G 1.58 | H 1.75 | I 2.36 | K 1.49 | L 1.39 | M 2.18 | N 1.66 | P 2.08 | Q 1.9 | R 1.59 | S 2.48 | T 1.95 | V 1.91 | W 2.23 | Y 1.57
H20: A 1.24 | C 2.94 | D 2.28 | E 2.13 | F 1.98 | G 1.53 | I 1.4 | K 2.56 | L 1.61 | M 2.13 | N 1.49 | P 1.83 | Q 1.04 | R 1.66 | S 2.69 | T 1.55 | V 1.43 | W 2.24 | Y 2.18
K21: A 1.77 | C 1.98 | D 1.86 | E 1.76 | F 2.17 | G 1.9 | H 1.89 | I 2.14 | L 2.14 | M 2.76 | N 2 | P 2.13 | Q 2 | R 1.05 | S 1.85 | T 2.04 | V 1.38 | W 1.6 | Y 1.71
C22: A 1.78 | D 2.15 | E 2.19 | F 1.74 | G 1.62 | H 2.44 | I 1.59 | K 2 | L 1.38 | M 1.74 | N 2.17 | P 2.44 | Q 2.66 | R 1.75 | S 3.62 | T 1.47 | V 2.51 | W 1.46 | Y 1.88
L23: A 2.65 | C 1.97 | D 1.63 | E 1.97 | F 1.8 | G 1.76 | H 1.97 | I 2.02 | K 1.91 | M 1.96 | N 2.21 | P 2.02 | Q 1.92 | R 1.7 | S 1.63 | T 2.51 | V 1.83 | W 1.75 | Y 1.75
E24: A 1.77 | C 2.15 | D 1.71 | F 1.7 | G 1.72 | H 1.69 | I 1.51 | K 1.76 | L 2.52 | M 2.31 | N 1.48 | P 1.63 | Q 2.37 | R 1.75 | S 2.75 | T 1.56 | V 2.88 | W 3.02 | Y 1.51

Variants of: B2
Assay: as above
Settings: c terminus: a fixed tail appended

Protein stability index: each site, then its substitutions
Q1: D 1.28 | F 3.06 | G 1.2 | K 2.58 | L 1.86 | N 1.67 | P 2.56 | T 1.26 | V 1.54 | Y 1.97
K2: C 1.77 | D 2.51 | E 1.84 | G 1.74 | H 1.13 | I 2.71 | L 1.78 | M 1.7 | P 2.24 | R 2.34 | S 1.76 | T 1.03 | V 1.67
N3: D 3.28 | E 1.61 | I 3.48 | M 3.62 | Q 1.81 | R 1.76 | S 1.78 | T 2.09 | V 3.1 | W 3.6 | Y 1.96
F4: A 2.45 | D 3.72 | E 2.94 | G 3.73 | H 1.98 | I 2.53 | K 4.05 | M 2.31 | N 3.27 | P 4.09 | R 3.06 | S 3.4 | T 3.51 | V 2.87 | Y 1.98
E5: A 1.62 | C 2.87 | D 1.59 | G 2.52 | H 1.96 | K 2.24 | L 1.72 | N 2.96 | Q 1.25 | R 3.01 | S 1.39 | T 1.94
L6: A 3.32 | E 2.46 | F 1.91 | G 3.23 | H 2.55 | I 2.12 | K 2.65 | N 2.91 | P 3.62 | Q 2.54 | R 3.29 | S 2.19 | T 2.01 | V 2.04
A7: C 2.56 | D 2.85 | E 1.68 | F 1.88 | H 2.16 | K 2.98 | L 1.22 | M 1.73 | P 3.32 | Q 2.58 | S 1.78 | T 2.2 | V 1.77 | W 2.26 | Y 2.08
F8: C 1.07 | D 4.41 | E 3.82 | G 4.29 | H 2.33 | N 2.06 | P 4.98 | Q 3.61 | S 1.45 | T 2.6 | V 2.12 | W 1.48 | Y 1.35
T9: A 1.37 | C 2.03 | D 2.74 | E 2.9 | G 2.02 | H 1.96 | I 3.12 | K 1.39 | N 2.37 | P 3.3 | Q 1.89 | R 1.13 | S 1.98 | V 2.5 | W 2.96 | Y 2.57
M10: A 3.87 | C 3.37 | D 4.64 | E 4.17 | F 3.08 | G 4.33 | H 3.91 | I 1.57 | K 3.9 | L 1.66 | N 4.24 | P 3.66 | Q 4.38 | R 3.77 | S 3.88 | T 3.66 | V 3.29 | W 1.41 | Y 3.45
A11: C 3.46 | D 3.85 | E 3.78 | G 2.04 | H 3.39 | I 4.18 | K 2.29 | M 1.49 | N 2.82 | P 3.85 | Q 1.62 | R 3.03 | S 2.79 | W 2.75
E12: D 1.8 | G 1.98 | H 2.01 | I 1.74 | K 2.05 | L 2.69 | N 2.6 | P 2.26 | Q 1.87 | R 1.33 | S 4 | T 1.86 | V 3.63 | W 3.4
N13: C 2.69 | E 2.21 | F 2.82 | G 2.19 | H 1.41 | I 2.98 | K 1.95 | L 1.98 | P 3.63 | Q 1.68 | R 1.67 | S 2.33 | T 1.8 | V 1.33 | W 2 | Y 2.99
L14: A 3.7 | C 3.14 | D 4.44 | E 4.23
